Results from patent US20210087281A1 (AGOMAB THERAPEUTICS, published 2021).

Legend:
[1] = biological target: T1, native mouse MET on living cells (mouse, UniProt P16056 25-1379); assay: flow cytometry, MLP29 cells
T1 construct: whole, on cells; also called Mouse cells (MLP29); mouse epithelial cells expressing MET
Procedure, shortened: (§1)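 Chimeric anti-MET antibodies were incubated with living cells expressing native MET, human on A549 and mouse on MLP29. Binding was detected by flow cytometry with phycoerythrin-conjugated anti-human IgG1. Commercial anti-MET antibodies with matching PE secondaries served as positive controls.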

human MET ECD [2] = biological target: T2, human MET ECD (human, UniProt P08581 25-932); assay: ELISA, MET ECD in solid phase, mAb 0-50 nM
T2 construct: range 1-932; recombinant ECD made by the applicants; the stated range begins at residue 1, so it includes the signal peptide of the entry; also called hMET; hMET ECD
T2 sequence (P08581 25-932 limits assumed, form in doubt): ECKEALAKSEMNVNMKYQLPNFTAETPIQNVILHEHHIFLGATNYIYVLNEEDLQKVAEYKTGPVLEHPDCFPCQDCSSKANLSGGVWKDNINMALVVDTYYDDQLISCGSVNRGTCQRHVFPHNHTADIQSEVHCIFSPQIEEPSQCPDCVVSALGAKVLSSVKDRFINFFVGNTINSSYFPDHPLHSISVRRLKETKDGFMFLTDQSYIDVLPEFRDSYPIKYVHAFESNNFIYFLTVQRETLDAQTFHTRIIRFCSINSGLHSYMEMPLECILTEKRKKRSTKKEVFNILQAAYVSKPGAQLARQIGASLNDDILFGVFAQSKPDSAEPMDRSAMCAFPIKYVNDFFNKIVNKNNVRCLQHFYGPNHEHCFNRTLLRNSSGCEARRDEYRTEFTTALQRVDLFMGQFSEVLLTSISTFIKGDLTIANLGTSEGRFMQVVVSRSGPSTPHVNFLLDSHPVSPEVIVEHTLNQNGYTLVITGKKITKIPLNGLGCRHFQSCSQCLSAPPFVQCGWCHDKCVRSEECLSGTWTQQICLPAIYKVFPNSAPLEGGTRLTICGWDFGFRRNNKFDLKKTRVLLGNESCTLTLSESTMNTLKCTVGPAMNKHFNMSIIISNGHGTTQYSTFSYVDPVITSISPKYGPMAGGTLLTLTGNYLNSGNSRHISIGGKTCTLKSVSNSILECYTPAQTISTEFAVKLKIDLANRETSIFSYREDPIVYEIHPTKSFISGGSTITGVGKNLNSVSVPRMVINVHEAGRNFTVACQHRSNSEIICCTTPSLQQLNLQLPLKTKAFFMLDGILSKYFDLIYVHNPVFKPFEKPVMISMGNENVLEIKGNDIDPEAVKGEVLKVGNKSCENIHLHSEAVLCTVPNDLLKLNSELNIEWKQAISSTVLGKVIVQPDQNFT
Protocol: Using human MET as a template, we mutagenized each of these residues in different permutations, generating a series of MET mutants that are fully human except for specific residues, which are llama. Next, we tested the affinity of selected SEMA-binding mAbs (71D6, 71C3, 71D4, 71A3, 71G2) and PSI-binding mAbs (76H10 and 71G3) for these MET mutants by ELISA. To this end, the various MET proteins were immobilized in solid phase (100 ng/well in a 96-well plate) and then exposed to increasing concentrations of antibodies (0-50 nM) solution. […] Wild-type human MET was used as positive control.
TABLE 18 The epitopes of MET responsible for agonistic antibody binding represent residues conserved among H. sapiens, M. musculus, R. norvegicus, M. fascicularis but not among the same species and L. glama. The relevance of residues conserved among human, mouse, rat, cynomolgus monkey but not llama MET for binding to agonistic mAbs was tested by ELISA. Wild-type (WT) or mutant (MT) human MET ECD was immobilized in solid phase and exposed to increasing concentrations of mAbs in solution. […] All binding values were normalized to the WT protein and are expressed as % binding (EMAX) compared to WT MET.

[3] = biological target: T1, native mouse MET on living cells; assay: cell-based or functional assay
[4] = biological target: T3, native human MET on living cells (human, UniProt P08581 25-1390); assay: cell-based or functional assay
T3 sequence (P08581 25-1390): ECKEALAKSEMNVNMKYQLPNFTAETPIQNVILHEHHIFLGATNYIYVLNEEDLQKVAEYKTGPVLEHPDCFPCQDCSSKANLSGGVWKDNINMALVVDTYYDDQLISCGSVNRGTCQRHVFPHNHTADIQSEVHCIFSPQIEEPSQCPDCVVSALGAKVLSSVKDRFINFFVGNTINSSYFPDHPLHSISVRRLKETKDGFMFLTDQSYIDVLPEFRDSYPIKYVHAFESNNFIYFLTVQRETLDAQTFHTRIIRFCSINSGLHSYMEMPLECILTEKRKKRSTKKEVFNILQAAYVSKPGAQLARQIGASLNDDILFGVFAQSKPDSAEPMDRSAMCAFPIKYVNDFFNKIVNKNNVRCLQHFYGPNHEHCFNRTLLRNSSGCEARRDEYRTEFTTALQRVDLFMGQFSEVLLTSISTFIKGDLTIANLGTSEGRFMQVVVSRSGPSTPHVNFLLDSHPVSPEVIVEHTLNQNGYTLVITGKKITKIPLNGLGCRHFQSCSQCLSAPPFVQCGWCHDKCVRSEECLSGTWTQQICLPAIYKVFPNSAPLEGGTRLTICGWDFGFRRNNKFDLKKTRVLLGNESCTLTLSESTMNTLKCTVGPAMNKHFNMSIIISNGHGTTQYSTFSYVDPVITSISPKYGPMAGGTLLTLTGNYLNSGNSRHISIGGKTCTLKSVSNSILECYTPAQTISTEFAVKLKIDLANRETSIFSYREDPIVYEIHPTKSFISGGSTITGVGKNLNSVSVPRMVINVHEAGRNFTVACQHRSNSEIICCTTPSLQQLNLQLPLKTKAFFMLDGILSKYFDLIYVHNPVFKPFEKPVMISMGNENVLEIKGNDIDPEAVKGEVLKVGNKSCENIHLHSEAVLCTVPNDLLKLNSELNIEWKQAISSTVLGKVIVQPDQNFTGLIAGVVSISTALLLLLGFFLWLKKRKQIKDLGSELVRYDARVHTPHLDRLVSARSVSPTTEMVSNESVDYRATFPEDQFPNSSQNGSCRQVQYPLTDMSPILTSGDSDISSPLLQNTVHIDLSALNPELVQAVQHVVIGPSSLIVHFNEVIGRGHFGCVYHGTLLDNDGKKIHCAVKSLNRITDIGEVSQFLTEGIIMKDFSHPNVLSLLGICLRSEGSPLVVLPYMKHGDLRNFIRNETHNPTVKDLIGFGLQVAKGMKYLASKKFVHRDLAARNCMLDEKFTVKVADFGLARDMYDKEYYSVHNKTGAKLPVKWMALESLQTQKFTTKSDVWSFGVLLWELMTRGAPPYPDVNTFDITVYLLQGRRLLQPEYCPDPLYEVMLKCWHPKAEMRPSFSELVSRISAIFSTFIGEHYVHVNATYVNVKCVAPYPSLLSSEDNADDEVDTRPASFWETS

[5] = biological target: T4, human MET-Fc (R&D Systems) (human, UniProt P08581 25-932); assay: competition ELISA, hMET-Fc in solid phase, competitor 0.3 nM biotinylated hHGF
T4 construct: extracellular domain; bought chimeric protein; also called hMET; not shown: Fc portion of human IgG1
T4 sequence (P08581 25-932): as the sequence (P08581 25-932 limits assumed, form in doubt) above
Procedure, shortened: (§2)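 First, HGF is biotinylated at the N-terminus via NHS-LC-biotin. Next, the coated chimeric receptor is incubated with this tracer plus antibody at rising concentrations, 0-120 nM. Finally, IC₅₀ and IMAX (maximal % competition reached at saturation) are derived.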

[6] = biological target: T5, mouse MET-Fc (R&D Systems) (mouse, UniProt P16056 25-929, limits assumed); assay: competition ELISA, mMET-Fc in solid phase, competitor 0.3 nM biotinylated mHGF
T5 construct: bought chimeric protein; also called mMET; not shown: Fc part
Procedure, shortened: as §2

[7] = biological target: T1, native mouse MET on living cells; assay: cell-based or functional assay; remark: listed apart in the source
[8] = biological target: T3, native human MET on living cells; assay: cell-based or functional assay; remark: listed apart in the source
[9] = biological target: T3, native human MET on living cells; assay: flow cytometry, A549 cells
Procedure, shortened: as §1

[10] = biological target: T1, native mouse MET on living cells; assay: cell-based or functional assay; remark: listed apart in the source
[11] = biological target: T3, native human MET on living cells; assay: cell-based or functional assay; remark: listed apart in the source
mouse MET ECD = biological target: T6, mouse MET ECD (mouse, UniProt P16056 25-931); assay: ELISA, MET ECD in solid phase, mAb 0-20 nM
T6 construct: range 1-931; recombinant ECD made by the applicants; the stated range begins at residue 1; also called mMET; mMET ECD
Procedure, shortened: (§3)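 Binding is determined by ELISA in which coated MET extracellular domain captures llama-human chimeric IgG1 applied in solution across a concentration series. Protein A-purified material from transient mammalian expression is used.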

human MET ECD [12] = biological target: T2, human MET ECD; assay: ELISA, MET ECD in solid phase, mAb 0-20 nM
Procedure, shortened: as §3

[13] = biological target: human MET ECD mutant D (mutations 1, 2) (human) (UniProt P08581); assay: ELISA, MET ECD in solid phase, mAb 0-50 nM
[14] = biological target: human MET ECD mutant H (mutations 2, 4) (human) (UniProt P08581); assay: ELISA, MET ECD in solid phase, mAb 0-50 nM
[15] = biological target: human MET ECD mutant A (mutations 1, 2, 3) (human) (UniProt P08581); assay: ELISA, MET ECD in solid phase, mAb 0-50 nM
[16] = biological target: human MET ECD mutant E (mutations 2, 3, 4) (human) (UniProt P08581); assay: ELISA, MET ECD in solid phase, mAb 0-50 nM
[17] = biological target: T1, native mouse MET on living cells; assay: cell-based or functional assay; remark: listed apart in the source
[18] = biological target: T3, native human MET on living cells; assay: cell-based or functional assay; remark: listed apart in the source

B1: 71A3 chimeric llama-human IgG1 mAb (antibody, V domains shown)
VH: EVQLVESGGGLVQPGGSLRLSCAASGFSFKDYDITWVRQAPGKGLEWVSTITSRSGSTSYVDSVKGRFTISGDNAKNTLYLQMNSLKPEDTAVYYCAKVYATTWDVGPLGYGMDYWGKGTLVTVSS
VL: SYELTQPSALSVTLGQTAKITCQGGSLGSSYAHWYQQKPGQAPVLVIYDDDSRPSGIPERFSGSSSGGTATLTISGAQAEDEGDYYCQSADSSGNAAVFGGGTHLTVL
notes: llama VH on human IgG1 CH1-CH2-CH3, llama VL on human lambda CL
With B1 the EC50 [1] was 0.811 nM, the EMAX [1] was 144 % relative to control and the “% binding (EMAX) compared to WT MET” value (human MET ECD [2]) was 100 % WT MET ECD. The “protection from staurosporine, viability EC50, MLP29 cells” value [3] was under 0.5 nM, the “protection from staurosporine, viability EMAX, MLP29 cells” value [3] was 70.5% and the “protection from staurosporine, viability EC50, MCF10A cells” value [4] was under 0.5 nM. The “protection from staurosporine, viability EMAX, MCF10A cells” value [4] was 71.7%, the IC50 [5] was 0.51 nM and the IMAX [5] was 93.4%. For the same binder, the IC50 [6] was 0.54 nM, the IMAX [6] was 87.7% and the “phospho-MET ELISA EC50, MLP29 cells” value [7] was 0.26 nM. For the same binder, the “phospho-MET ELISA EMAX (% HGF activity), MLP29 cells” value [7] was 96%, the “phospho-MET ELISA EC50, A549 cells” value [8] was 0.31 nM and the “phospho-MET ELISA EMAX (% HGF activity), A549 cells” value [8] was 86.6%. The EC50 [9] was 0.514 nM, the EMAX [9] was 161 % relative to control and the “branches per spheroid, MLP29 cells, 0.5 nM” value [10] was 30.3 branches. For the same binder, the “branches per spheroid, MLP29 cells, 2.5 nM” value [10] was 42 branches, the “branches per spheroid, MLP29 cells, 12.5 nM” value [10] was 42.7 branches and the “branches per spheroid, LOC cells, 0.5 nM” value [11] was 24 branches. For the same binder, the “branches per spheroid, LOC cells, 2.5 nM” value [11] was 30.3 branches, the “branches per spheroid, LOC cells, 12.5 nM” value [11] was 31.3 branches and the EC50 (mouse MET ECD) was 0.176 nM. For the same binder, the “EMAX (OD450)” value (mouse MET ECD) was 2.73 AU, the EC50 (human MET ECD [12]) was 0.229 nM and the “EMAX (OD450)” value (human MET ECD [12]) was 2.4 AU. The % binding (EMAX) compared to WT MET [13] was 128 % WT MET ECD, the % binding (EMAX) compared to WT MET [14] was 76.7 % WT MET ECD and the % binding (EMAX) compared to WT MET [15] was 117 % WT MET ECD. The % binding (EMAX) compared to WT MET [16] was 65.4 % WT MET ECD, the “scatter score 0-4, MLP29, 0.001 nM” value [17] was 0 score and the “scatter score 0-4, MLP29, 0.004 nM” value [17] was 0 score. For the same binder, the “scatter score 0-4, MLP29, 0.012 nM” value [17] was 2 score, the “scatter score 0-4, MLP29, 0.037 nM” value [17] was 3 score and the “scatter score 0-4, MLP29, 0.111 nM” value [17] was 3 score. The “scatter score 0-4, MLP29, 0.333 nM” value [17] was 4 score, the “scatter score 0-4, MLP29, 1.000 nM” value [17] was 4 score and the “scatter score 0-4, MLP29, 3.000 nM” value [17] was 4 score. For the same binder, the “scatter score 0-4, MLP29, 9.000 nM” value [17] was 4 score, the “scatter score 0-4, HPAF-II, 0.001 nM” value [18] was 0 score and the “scatter score 0-4, HPAF-II, 0.004 nM” value [18] was 0 score. For the same binder, the “scatter score 0-4, HPAF-II, 0.012 nM” value [18] was 2 score, the “scatter score 0-4, HPAF-II, 0.037 nM” value [18] was 3 score and the “scatter score 0-4, HPAF-II, 0.111 nM” value [18] was 3 score. For the same binder, the “scatter score 0-4, HPAF-II, 0.333 nM” value [18] was 4 score, the “scatter score 0-4, HPAF-II, 1.000 nM” value [18] was 4 score and the “scatter score 0-4, HPAF-II, 3.000 nM” value [18] was 4 score. The “scatter score 0-4, HPAF-II, 9.000 nM” value [18] was 4 score.

B2: 71G2 chimeric llama-human IgG1 mAb (antibody, V domains shown)
VH: EVQLQESGGGLVQPGGSLRLSCAASGFTFSIYDMSWVRQAPGKGLEWVSTINSDGSSTSYVDSVKGRFTISRDNAKNTLYLQMNSLKPEDTAVYYCAKVYGSTWDVGPMGYGMDYWGKGTLVTVSS
VL: SSALTQPSALSVSLGQTARITCQGGSLGSSYAHWYQQKPGQAPVLVIYGDDSRPSGIPERFSGSSSGGTATLTISGAQAEDEDDYYCQSTDSSGNTVFGGGTRLTVL
notes: as for B1
B2 was tested, and the EC50 [1] was 0.688 nM, the EMAX [1] was 130 % relative to control and the “% binding (EMAX) compared to WT MET” value (human MET ECD [2]) was 100 % WT MET ECD. For the same binder, the “protection from staurosporine, viability EC50, MLP29 cells” value [3] was 1.99 nM, the “protection from staurosporine, viability EMAX, MLP29 cells” value [3] was 58.3% and the “protection from staurosporine, viability EC50, MCF10A cells” value [4] was 1.06 nM. The “protection from staurosporine, viability EMAX, MCF10A cells” value [4] was 64.8%, the IC50 [5] was 0.23 nM and the IMAX [5] was 97.8%. For the same binder, the IC50 [6] was 0.26 nM, the IMAX [6] was 91.9% and the “phospho-MET ELISA EC50, MLP29 cells” value [7] was 0.25 nM. The “phospho-MET ELISA EMAX (% HGF activity), MLP29 cells” value [7] was 110%, the “phospho-MET ELISA EC50, A549 cells” value [8] was 0.37 nM and the “phospho-MET ELISA EMAX (% HGF activity), A549 cells” value [8] was 101%. For the same binder, the EC50 [9] was 0.604 nM, the EMAX [9] was 144 % relative to control and the “branches per spheroid, MLP29 cells, 0.5 nM” value [10] was 34 branches. For the same binder, the “branches per spheroid, MLP29 cells, 2.5 nM” value [10] was 46.3 branches, the “branches per spheroid, MLP29 cells, 12.5 nM” value [10] was 45 branches and the “branches per spheroid, LOC cells, 0.5 nM” value [11] was 25.3 branches. For the same binder, the “branches per spheroid, LOC cells, 2.5 nM” value [11] was 29.3 branches, the “branches per spheroid, LOC cells, 12.5 nM” value [11] was 31.7 branches and the EC50 (mouse MET ECD) was 0.101 nM. For the same binder, the “EMAX (OD450)” value (mouse MET ECD) was 3.17 AU, the EC50 (human MET ECD [12]) was 0.112 nM and the “EMAX (OD450)” value (human MET ECD [12]) was 3.09 AU. The % binding (EMAX) compared to WT MET [13] was 114 % WT MET ECD, the % binding (EMAX) compared to WT MET [14] was 40.2 % WT MET ECD and the % binding (EMAX) compared to WT MET [15] was 92.1 % WT MET ECD. For the same binder, the % binding (EMAX) compared to WT MET [16] was 41.4 % WT MET ECD, the “scatter score 0-4, MLP29, 0.001 nM” value [17] was 0 score and the “scatter score 0-4, MLP29, 0.004 nM” value [17] was 0 score. The “scatter score 0-4, MLP29, 0.012 nM” value [17] was 1 score, the “scatter score 0-4, MLP29, 0.037 nM” value [17] was 2 score and the “scatter score 0-4, MLP29, 0.111 nM” value [17] was 4 score. The “scatter score 0-4, MLP29, 0.333 nM” value [17] was 4 score, the “scatter score 0-4, MLP29, 1.000 nM” value [17] was 4 score and the “scatter score 0-4, MLP29, 3.000 nM” value [17] was 4 score. The “scatter score 0-4, MLP29, 9.000 nM” value [17] was 4 score, the “scatter score 0-4, HPAF-II, 0.001 nM” value [18] was 0 score and the “scatter score 0-4, HPAF-II, 0.004 nM” value [18] was 1 score. The “scatter score 0-4, HPAF-II, 0.012 nM” value [18] was 2 score, the “scatter score 0-4, HPAF-II, 0.037 nM” value [18] was 3 score and the “scatter score 0-4, HPAF-II, 0.111 nM” value [18] was 4 score. The “scatter score 0-4, HPAF-II, 0.333 nM” value [18] was 4 score, the “scatter score 0-4, HPAF-II, 1.000 nM” value [18] was 4 score and the “scatter score 0-4, HPAF-II, 3.000 nM” value [18] was 4 score. For the same binder, the “scatter score 0-4, HPAF-II, 9.000 nM” value [18] was 4 score.
